According to patent US10087225B2, “Formulation of MK2 inhibitor peptides” (MOERAE MATRIX, INC., priority 2015, dated 2018):

Experiments:
Assay in all cases: Kinase Profiling Assay
Format in all cases: biochemical
Settings in all cases: for % activity: 100 μM
[1] = target: T1, ASK1(h) (Homo sapiens, UniProt Q99683)
T1 sequence (Q99683 1-1374): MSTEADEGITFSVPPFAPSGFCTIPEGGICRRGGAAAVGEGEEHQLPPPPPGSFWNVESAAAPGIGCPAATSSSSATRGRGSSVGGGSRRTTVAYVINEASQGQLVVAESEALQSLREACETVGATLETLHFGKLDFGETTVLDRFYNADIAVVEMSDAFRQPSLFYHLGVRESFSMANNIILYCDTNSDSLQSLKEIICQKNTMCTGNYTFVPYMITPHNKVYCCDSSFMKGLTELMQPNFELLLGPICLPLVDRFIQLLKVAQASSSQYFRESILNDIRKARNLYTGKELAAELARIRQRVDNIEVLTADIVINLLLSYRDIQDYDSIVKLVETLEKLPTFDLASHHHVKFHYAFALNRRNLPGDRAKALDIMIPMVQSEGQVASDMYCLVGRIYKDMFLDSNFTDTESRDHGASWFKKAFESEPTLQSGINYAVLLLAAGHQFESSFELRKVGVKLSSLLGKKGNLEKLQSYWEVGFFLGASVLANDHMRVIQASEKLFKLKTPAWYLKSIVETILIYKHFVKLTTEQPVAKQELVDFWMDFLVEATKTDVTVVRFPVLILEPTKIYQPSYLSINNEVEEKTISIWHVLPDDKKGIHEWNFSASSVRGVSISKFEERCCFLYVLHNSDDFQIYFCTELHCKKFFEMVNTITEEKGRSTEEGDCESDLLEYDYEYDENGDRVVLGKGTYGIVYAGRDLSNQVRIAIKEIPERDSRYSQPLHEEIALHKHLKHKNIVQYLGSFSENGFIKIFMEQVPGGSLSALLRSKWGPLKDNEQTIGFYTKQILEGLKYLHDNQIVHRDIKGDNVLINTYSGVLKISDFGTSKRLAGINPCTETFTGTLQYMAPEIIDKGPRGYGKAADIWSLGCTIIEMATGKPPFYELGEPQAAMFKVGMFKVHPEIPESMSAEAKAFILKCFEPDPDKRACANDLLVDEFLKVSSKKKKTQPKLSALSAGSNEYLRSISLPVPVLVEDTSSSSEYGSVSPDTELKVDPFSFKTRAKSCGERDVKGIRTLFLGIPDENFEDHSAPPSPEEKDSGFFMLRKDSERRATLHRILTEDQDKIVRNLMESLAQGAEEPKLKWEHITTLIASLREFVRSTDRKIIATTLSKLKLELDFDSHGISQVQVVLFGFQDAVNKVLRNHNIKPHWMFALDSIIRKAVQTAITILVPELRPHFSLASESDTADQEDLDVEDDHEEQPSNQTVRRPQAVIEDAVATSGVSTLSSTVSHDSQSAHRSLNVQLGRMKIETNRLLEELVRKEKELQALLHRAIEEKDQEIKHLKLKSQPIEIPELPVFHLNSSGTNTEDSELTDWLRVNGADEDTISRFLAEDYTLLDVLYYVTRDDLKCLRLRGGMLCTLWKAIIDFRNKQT

[2] = target: T2, SGK3(h) (Homo sapiens, UniProt Q96BR1)
T2 sequence (Q96BR1 1-496): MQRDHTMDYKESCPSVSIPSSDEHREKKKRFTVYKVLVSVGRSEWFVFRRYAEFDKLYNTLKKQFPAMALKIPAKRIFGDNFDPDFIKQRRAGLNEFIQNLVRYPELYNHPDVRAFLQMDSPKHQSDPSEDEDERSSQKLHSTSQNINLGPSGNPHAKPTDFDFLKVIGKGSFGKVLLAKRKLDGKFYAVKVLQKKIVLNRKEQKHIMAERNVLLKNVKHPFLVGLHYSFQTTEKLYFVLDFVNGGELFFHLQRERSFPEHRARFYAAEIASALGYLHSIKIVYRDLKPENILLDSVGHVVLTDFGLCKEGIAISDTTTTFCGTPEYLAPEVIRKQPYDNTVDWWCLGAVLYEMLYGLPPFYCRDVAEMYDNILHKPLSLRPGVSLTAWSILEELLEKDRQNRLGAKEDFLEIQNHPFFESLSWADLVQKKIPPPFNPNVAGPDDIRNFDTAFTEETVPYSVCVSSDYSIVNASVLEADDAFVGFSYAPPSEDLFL

[3] = target: T3, TAO2(h) (Homo sapiens, UniProt Q9UL54)
T3 sequence (Q9UL54 1-1235): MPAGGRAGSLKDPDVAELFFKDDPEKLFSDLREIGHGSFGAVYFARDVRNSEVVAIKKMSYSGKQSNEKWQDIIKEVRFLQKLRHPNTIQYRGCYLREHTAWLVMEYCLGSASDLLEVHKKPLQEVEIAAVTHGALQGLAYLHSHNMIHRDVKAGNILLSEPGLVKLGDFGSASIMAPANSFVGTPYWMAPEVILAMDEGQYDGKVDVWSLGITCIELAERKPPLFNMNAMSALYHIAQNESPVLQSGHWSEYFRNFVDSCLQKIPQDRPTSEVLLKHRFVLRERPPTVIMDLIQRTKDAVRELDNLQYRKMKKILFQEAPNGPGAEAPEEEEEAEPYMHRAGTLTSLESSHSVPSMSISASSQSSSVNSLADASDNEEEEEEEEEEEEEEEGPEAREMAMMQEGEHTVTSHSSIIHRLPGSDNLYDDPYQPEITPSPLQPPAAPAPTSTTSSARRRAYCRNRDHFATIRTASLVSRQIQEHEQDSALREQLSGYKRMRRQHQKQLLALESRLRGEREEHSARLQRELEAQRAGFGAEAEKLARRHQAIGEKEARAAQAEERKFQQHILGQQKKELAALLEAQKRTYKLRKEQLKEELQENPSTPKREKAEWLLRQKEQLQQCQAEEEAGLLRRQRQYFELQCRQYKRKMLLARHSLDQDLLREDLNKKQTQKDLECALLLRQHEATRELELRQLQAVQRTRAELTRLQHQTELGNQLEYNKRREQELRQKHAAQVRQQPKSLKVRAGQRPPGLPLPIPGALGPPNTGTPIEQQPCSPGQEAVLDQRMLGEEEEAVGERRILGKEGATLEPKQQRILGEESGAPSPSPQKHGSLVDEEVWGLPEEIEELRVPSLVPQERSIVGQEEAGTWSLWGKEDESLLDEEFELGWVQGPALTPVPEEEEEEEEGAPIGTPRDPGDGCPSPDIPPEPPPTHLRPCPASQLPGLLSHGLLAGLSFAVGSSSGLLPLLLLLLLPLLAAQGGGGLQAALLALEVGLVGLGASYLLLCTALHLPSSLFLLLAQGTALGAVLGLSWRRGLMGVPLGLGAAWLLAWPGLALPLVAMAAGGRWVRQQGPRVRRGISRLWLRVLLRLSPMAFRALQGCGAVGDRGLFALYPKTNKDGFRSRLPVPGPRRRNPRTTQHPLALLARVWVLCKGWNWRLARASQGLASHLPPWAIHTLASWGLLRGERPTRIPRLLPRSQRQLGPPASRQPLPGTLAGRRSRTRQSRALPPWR

| Substance | activity at 100 µM [1] [%] | activity at 100 µM [2] [%] | activity at 100 µM [3] [%] | % activity [1] [%] | % activity [2] [%] | % activity [3] [%] |
| --- | --- | --- | --- | --- | --- | --- |
| H-YARAAARQARAKALARQLGVAA-OH [MMI-0100] | 100 | 95 | 95 | – | – | – |
| HRRIKAWLKKIKALARQLGVAA (Mammalian) [MMI-0500] | – | – | – | -4 | -3 | 15 |
| YARAAARQARAKALNRQLGVA (Mammalian) [MMI-0200] | – | – | – | 101 | 58 | 93 |
